In publication PMC9537296 (Scientific Reports, 2022):

Tests used:
[1] = test system: hyperinsulinemic hypoglycemia; conditions: meta-analysis of six cohorts (1142 subjects); cited from earlier work
From the text: Diazoxide, a first-line therapy, is a nondiuretic benzothiadizine originally formulated as a peripheral vasodilator for the treatment of hypertension. […] Octreotide—a synthetic peptide analog of somatostatin—has been frequently used as a second-line therapy to treat patients with CHI who are not res ...

[2] = biological target: T1, FcγRIIIA (Homo sapiens, UniProt P08637); test: FcγRIIIA binding by SPR; conditions: SPR BIACORE T200, 25 °C, steady-state affinity fit; read-out: Binding affinities (KD) FcγRIIIA
T1 construct: purchased
Experimental: (§1) All experiments were carried out on a BIACORE T200 instrument (GE Healthcare, USA) at 25 °C. Amine coupling chemistry was used to immobilize FcγRs on the surface of a CM5 sensor chip. For activation, a mixture of NHS and EDC solution was injected onto a CM5 sensor chip for 7 min at a flow rate of 10 μL/min. FcγRIA, FcγRIIA, FcγRIIB/C, FcγRIIIA, and FcγRIIIB were immobilized on CM5 chips by injecting 5 μg/mL of FcγRIA, 10 μg/mL of FcγRIIA, 2 μg/mL of FcγRIIIA, 10 μg/mL of FcγRIIIB, and 10 μg/mL of FcγRIIB/C diluted with 10 mM sodium acetate (pH 4.5) onto CM5 chips at a flow rate of 5 μL/min. The target RU was 1500 RU for FcγRIA and FcγRIIA, 3,000 RU for FcγRIIB/C and FcγRIIIB, and 1,000 RU for FcγRIIIA. To deactivate unreacted moieties, the chip surface was blocked with 1 M ethanolamine/HCl (pH 8.5) for 7 min at a flow rate of […]. HMC001 and I.V.-Globulin SN were diluted with running buffer to 500, 250, 125, 62.5, and 31.25 nM. HM15136 was diluted with running buffer to 486, 243, 121.5, 60.75, and 30.38 nM. The test materials were injected for 10 min (for Fc immobilized with FcγRIA and FcγRIIA) or 15 min (for Fc immobilized with FcγRIIIA, FcγRIIIB, and FcγRIIB/C) for association, followed by 10 min-dissociation at 20 μL/min. Binding affinity was evaluated with a steady-state affinity fitting model in BIACORE T200 Evaluation Software version 3.0. […]

[3] = biological target: T2, FcγRIIIB (Homo sapiens, UniProt O75015); test: FcγRIIIB binding by SPR; conditions: SPR BIACORE T200, 25 °C, steady-state affinity fit; read-out: Binding affinities (KD) FcγRIIIB
T2 construct: purchased
Experimental: as §1

[4] = biological target: human C1q (Homo sapiens, UniProt P02745+P02746+P02747); test: C1q binding by SPR; conditions: SPR BIACORE T200, test material immobilized, steady-state affinity fit; read-out: Binding affinities (KD) C1q
Experimental: The target immobilization of the three materials was 3000 RU. To stabilize the sensor chip, running buffer (HBS-EP) was injected for 10 min, followed by 10 min dissociation at 25 μL/min before test material injection. Then, regeneration buffer was injected for 30 s at 25 μL/min; this step was repeated three times. C1q was diluted with running buffer to 50, 25, 12.5, 6.25, and 3.125 nM and injected for 6 min for association, followed by 10-min dissociation at 25 μL/min. The remaining C1q was regenerated with regeneration buffer for 30 s at 25 μL/min; this step was repeated three times. Binding affinity was evaluated with a steady-state affinity fitting model in BIACORE T200 Evaluation Software version 3.0. Blank-subtracted sensograms (RU form reference channel and blank were subtracted) were used for evaluation.

[5] = biological target: T3, FcγRIIB/C (Homo sapiens, UniProt P31994); test: FcγRIIB/C binding by SPR; conditions: SPR BIACORE T200, 25 °C, steady-state affinity fit; read-out: Binding affinities (KD) FcγRIIB/C
T3 construct: purchased
T3 sequence (P31994 43-310): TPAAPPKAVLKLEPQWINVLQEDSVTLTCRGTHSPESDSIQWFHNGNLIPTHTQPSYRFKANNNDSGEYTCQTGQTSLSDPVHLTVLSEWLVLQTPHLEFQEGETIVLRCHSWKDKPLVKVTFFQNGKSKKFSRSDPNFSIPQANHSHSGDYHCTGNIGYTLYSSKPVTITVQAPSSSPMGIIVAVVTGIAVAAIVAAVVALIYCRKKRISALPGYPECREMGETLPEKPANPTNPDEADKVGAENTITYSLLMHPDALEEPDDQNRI
Experimental: All experiments were carried out on a BIACORE T200 instrument (GE Healthcare, USA) at 25 °C. Amine coupling chemistry was used to immobilize FcγRs on the surface of a CM5 sensor chip. For activation, a mixture of NHS and EDC solution was injected onto a CM5 sensor chip for 7 min at a flow rate of 10 μL/min. FcγRIA, FcγRIIA, FcγRIIB/C, FcγRIIIA, and FcγRIIIB were immobilized on CM5 chips by injecting 5 μg/mL of FcγRIA, 10 μg/mL of FcγRIIA, 2 μg/mL of FcγRIIIA, 10 μg/mL of FcγRIIIB, and 10 μg/mL of FcγRIIB/C diluted with 10 mM sodium acetate (pH 4.5) onto CM5 chips at a flow rate of 5 μL/min. The target RU was 1500 RU for FcγRIA and FcγRIIA, 3,000 RU for FcγRIIB/C and FcγRIIIB, and 1,000 RU for FcγRIIIA. To deactivate unreacted moieties, the chip surface was blocked with 1 M ethanolamine/HCl (pH 8.5) for 7 min at a flow rate of 10 L/min. […] The test materials were injected for 10 min (for Fc immobilized with FcγRIA and FcγRIIA) or 15 min (for Fc immobilized with FcγRIIIA, FcγRIIIB, and FcγRIIB/C) for association, followed by 10 min-dissociation at 20 μL/min. Binding affinity was evaluated with a steady-state affinity fitting model in BIACORE T200 Evaluation Software version 3.0. Blank-subtracted sensograms (RU form reference channel and blanks were subtracted) were used for evaluation.

[6] = biological target: T4, FcγRIA (Homo sapiens, UniProt P12314); test: FcγRIA binding by SPR; conditions: SPR BIACORE T200, 25 °C, steady-state affinity fit; read-out: Binding affinities (KD) FcγRIA
T4 construct: purchased
Experimental: as §1

[7] = biological target: T5, FcγRIIA (Homo sapiens, UniProt P12318); test: FcγRIIA binding by SPR; conditions: SPR BIACORE T200, 25 °C, steady-state affinity fit; read-out: Binding affinities (KD) FcγRIIA
T5 construct: purchased
T5 sequence (P12318 34-317): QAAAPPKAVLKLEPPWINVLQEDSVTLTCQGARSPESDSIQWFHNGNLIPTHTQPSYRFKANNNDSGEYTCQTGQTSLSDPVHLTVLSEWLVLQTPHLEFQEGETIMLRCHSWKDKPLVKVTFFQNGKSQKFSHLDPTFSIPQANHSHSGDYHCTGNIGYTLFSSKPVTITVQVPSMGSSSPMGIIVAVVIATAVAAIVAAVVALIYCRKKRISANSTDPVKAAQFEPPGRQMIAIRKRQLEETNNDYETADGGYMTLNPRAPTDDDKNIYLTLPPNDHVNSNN
Experimental: as §1

T4 sequence (P12314 16-374): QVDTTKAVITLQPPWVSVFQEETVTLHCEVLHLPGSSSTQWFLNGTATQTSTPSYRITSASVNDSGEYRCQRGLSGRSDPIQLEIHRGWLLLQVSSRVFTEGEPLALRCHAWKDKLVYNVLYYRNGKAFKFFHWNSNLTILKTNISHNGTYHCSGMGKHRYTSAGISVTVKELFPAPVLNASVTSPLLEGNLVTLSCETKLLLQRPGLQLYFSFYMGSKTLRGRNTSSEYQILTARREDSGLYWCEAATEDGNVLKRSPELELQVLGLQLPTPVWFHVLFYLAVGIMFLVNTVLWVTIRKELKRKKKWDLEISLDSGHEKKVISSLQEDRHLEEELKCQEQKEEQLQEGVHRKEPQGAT
T1 sequence (P08637 17-254): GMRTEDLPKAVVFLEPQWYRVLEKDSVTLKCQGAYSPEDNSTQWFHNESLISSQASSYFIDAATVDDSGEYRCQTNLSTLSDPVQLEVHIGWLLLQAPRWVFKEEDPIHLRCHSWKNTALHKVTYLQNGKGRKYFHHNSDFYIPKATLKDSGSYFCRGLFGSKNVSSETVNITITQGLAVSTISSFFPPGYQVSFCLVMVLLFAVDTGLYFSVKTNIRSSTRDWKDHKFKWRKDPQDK
T2 sequence (O75015 17-233): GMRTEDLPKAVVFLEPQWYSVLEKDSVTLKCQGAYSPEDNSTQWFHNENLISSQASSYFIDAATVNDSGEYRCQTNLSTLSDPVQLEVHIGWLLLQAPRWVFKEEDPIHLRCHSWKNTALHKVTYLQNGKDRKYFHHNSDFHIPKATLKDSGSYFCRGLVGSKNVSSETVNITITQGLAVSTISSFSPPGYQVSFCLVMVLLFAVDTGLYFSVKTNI
Sequence of human C1q (P02745 23-245): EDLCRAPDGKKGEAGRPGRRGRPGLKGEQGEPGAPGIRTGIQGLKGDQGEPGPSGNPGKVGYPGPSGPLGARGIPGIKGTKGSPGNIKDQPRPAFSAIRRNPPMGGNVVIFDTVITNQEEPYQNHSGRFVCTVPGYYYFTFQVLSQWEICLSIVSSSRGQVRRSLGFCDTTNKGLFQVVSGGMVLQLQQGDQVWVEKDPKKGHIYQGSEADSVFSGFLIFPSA
Sequence of human C1q (P02746 28-253): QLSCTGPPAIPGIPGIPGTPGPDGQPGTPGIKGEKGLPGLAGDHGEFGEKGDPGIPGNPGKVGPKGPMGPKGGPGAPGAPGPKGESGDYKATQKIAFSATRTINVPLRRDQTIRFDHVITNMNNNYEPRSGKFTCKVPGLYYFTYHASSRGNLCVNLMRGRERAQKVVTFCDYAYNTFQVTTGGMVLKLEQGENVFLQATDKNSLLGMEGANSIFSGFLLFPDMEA
Sequence of human C1q (P02747 29-245): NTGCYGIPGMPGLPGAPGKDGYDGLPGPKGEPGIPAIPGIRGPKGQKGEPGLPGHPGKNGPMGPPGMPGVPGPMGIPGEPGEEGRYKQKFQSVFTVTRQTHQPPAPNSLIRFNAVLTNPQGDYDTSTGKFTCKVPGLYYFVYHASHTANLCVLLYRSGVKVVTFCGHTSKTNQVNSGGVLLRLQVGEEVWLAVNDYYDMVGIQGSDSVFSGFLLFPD

| Kd [2] [nM] | Kd [3] [nM] | Kd [4] [nM] | Kd [5] [nM] | Kd [6] [nM] | Kd [7] [nM] | Molecule | response rate [1] [%] |
| --- | --- | --- | --- | --- | --- | --- | --- |
| – | – | – | – | – | – | CC1=NS(=O)(=O)c2cc(Cl)ccc2N1 [diazoxide, Diazoxide] | 71 |
| > 500 | > 500 | > 500 | > 500 | > 500 | > 500 | HMC001: Fc fragment of human immunoglobulin G4, derived from Escherichia coli, lacks glycosylation | – |
